Bridges are numbered along the chain shown (N, C = ends). Where no end group is shown, it is not given here. [ ]: non-standard residue; d: D form. The star is where a group is joined. PalS‑X = 3,5-bis(methyl-S-cysteinyl)-1-(methyl-S-palmityl)-benzene joining the two Cys; Ida^NHPal = iminodiacetic acid mono-N-palmityl amide, CCCCCCCCCCCCCCCCNC(=O)CNCC(=O)*; dPEG12 = 40-amino-4,7,10,13,16,19,22,25,28,31,34,37-dodecaoxotetradecanoic acid; Oic = O=C(O)[C@@H]1C[C@@H]2CCCC[C@@H]2N1; Palmitoyl = CCCCCCCCCCCCCCCC(=O)*; Tic = O=C(O)[C@@H]1Cc2ccccc2CN1; Aib = CC(C)(N)C(=O)O; Ahx = NCCCCCC(=O)O
T1: human neuromedin U receptor NMUR1 (human, UniProt Q9HB89 1-426)
T1 sequence (looked up): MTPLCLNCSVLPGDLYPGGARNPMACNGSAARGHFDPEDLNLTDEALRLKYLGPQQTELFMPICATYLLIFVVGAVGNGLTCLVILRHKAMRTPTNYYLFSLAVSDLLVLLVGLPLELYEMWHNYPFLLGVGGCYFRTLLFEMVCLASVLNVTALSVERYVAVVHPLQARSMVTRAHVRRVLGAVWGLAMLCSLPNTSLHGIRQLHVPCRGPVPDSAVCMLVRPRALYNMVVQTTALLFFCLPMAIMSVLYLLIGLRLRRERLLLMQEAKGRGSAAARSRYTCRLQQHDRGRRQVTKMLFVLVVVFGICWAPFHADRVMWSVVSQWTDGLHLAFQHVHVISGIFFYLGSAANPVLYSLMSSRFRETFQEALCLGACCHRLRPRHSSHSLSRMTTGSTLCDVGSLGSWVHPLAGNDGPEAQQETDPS

B1: NM5 (peptide)
peptide: [Aib]FLFRPRN[Aib]-NH2
modifications: N-terminus assumed
SMILES: CC(C)C[C@H](NC(=O)[C@H](Cc1ccccc1)NC(=O)C(C)(C)N)C(=O)N[C@@H](Cc1ccccc1)C(=O)N[C@@H](CCCNC(=N)N)C(=O)N1CCC[C@H]1C(=O)N[C@@H](CCCNC(=N)N)C(=O)N[C@@H](CC(N)=O)C(=O)NC(C)(C)C(N)=O
B2: NM2 (peptide)
peptide: [Aib]FLFRPRN-NH2
modifications: N-terminus assumed
SMILES: CC(C)C[C@H](NC(=O)[C@H](Cc1ccccc1)NC(=O)C(C)(C)N)C(=O)N[C@@H](Cc1ccccc1)C(=O)N[C@@H](CCCNC(=N)N)C(=O)N1CCC[C@H]1C(=O)N[C@@H](CCCNC(=N)N)C(=O)N[C@@H](CC(N)=O)C(N)=O
B3: NM3 (peptide)
peptide: Palmitoyl-[Aib]FLFRPRN-NH2
SMILES: CCCCCCCCCCCCCCCC(=O)NC(C)(C)C(=O)N[C@@H](Cc1ccccc1)C(=O)N[C@@H](CC(C)C)C(=O)N[C@@H](Cc1ccccc1)C(=O)N[C@@H](CCCNC(=N)N)C(=O)N1CCC[C@H]1C(=O)N[C@@H](CCCNC(=N)N)C(=O)N[C@@H](CC(N)=O)C(N)=O

Assays:
[1] = biological target: T1, human neuromedin U receptor NMUR1; assay: cell-based or functional assay
[2] = biological target: T2, human neuromedin U receptor NMUR2 (human, UniProt Q9GZQ4 1-415); assay: told from the calcium mobilization assay on HEK293 cells expressing the receptor; no direct binding assay
T2 construct: whole, on cells; also called neuromedin U 2 receptor; HEK-NMU2
Protocol: To test whether neuromedin U can be modified/derivatized to yield truncated bioactive compound(s) that may be useful as therapeutics, we synthesized a small library (25 peptides) of hNMU analogs utilizing various stabilization protocols, including: cyclization, lipidation, introduction of α,α-disubstituted and N-methylated amino acids, retro-inverso-approach, and combination of such (see Table 1). Subsequently all analogues were tested against human neuromedin U receptors (NMUR1 and NMUR2) in calcium mobilization assay (collaboration with Dr Gary Willars, University of Leicester, UK).
HEK293 cells expressing either the neuromedin U 1 receptor or neuromedin U 2 receptor (HEK-NMU1 and HEK-NMU2 respectively) were grown to approximately 90% confluence in ELISA strip plates (96-well format) pre-coated with poly-D-lysine (0.1% w/v) and loaded for 45 min at 37° C. with 2 iM fluo-4-AM in Krebs'-HEPES buffer with bovine serum albumin (KHB-BSA; composition: 10 mM HEPES; 4.2 mM NaHCO₃; 11.7 mM D-glucose; 1.18 mM MgSO₄.7H₂O; 1.18 mM KH₂PO₄; 4.69 mM KCl; 118 mM NaCl; 1.3 mM CaCl₂.2H₂O; 0.1% (w/v) BSA; pH 7.4). Monolayers were then washed and equilibrated for 5 min at 37° C. in 100 il KHB-BSA for subsequent recording of fluorescence as an index of intracellular [Ca²⁺] ([Ca²⁺]ᵢ) using a microplate reader (NOVOstar; BMG LABTECH, Aylesbury, U.K.). […]

T2 sequence (Q9GZQ4 whole entry): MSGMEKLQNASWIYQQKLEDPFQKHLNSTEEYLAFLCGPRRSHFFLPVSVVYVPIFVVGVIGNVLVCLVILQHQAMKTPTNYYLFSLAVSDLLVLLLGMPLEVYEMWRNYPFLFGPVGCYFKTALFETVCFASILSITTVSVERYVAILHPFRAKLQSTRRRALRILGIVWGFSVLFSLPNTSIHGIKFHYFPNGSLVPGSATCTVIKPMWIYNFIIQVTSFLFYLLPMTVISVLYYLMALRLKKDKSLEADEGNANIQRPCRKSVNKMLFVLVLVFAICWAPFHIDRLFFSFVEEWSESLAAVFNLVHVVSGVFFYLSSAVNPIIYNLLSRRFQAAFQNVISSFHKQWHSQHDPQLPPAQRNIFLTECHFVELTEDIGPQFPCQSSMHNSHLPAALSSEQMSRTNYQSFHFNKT

Row | Binder | NMUR1 EC50 [nM], calcium mobilization assay [1] [nM] | binding result [2]
1 | C[Ahx]FLFRPRN[Ahx]C-NH2 (cysteine pairing not given here) [NM8] | 186 | 
2 | {Ida^NHPal}-[Aib]FLFRPRN-NH2 [NM4A] | 7.41 | 
3 | {Palmitoyl-dPEG12}-[Aib]FLFRPRN[Aib]-NH2 [NM7] | 170 | 
4 | C[Ahx]FLFR[Tic]RN[Ahx]C-NH2 (linker 1-11 via PalS‑X) [NM16] | 3980 | 
5 | Palmitoyl-[dPEG12][Aib]FLFRPRN-NH2 [NM4] | 1.51 | binds
6 | Ac-FLFRPRN-NH2 [NM1] | 0.58 | 
7 | B1 | 58.9 | 
8 | FRVDEEFQSPFASQSRGYFLFRPRN-NH2 [human neuromedin U] | 1.12 | 
9 | C[Ahx]FLFR[Oic]RN[Ahx]C-NH2 (cysteine pairing not given here) [NM9] | 1410 | 
10 | B2 | 0.63 | 
11 | C[Ahx]FLFR[Tic]RN[Ahx]C-NH2 (cysteine pairing not given here) [NM10] | 3980 | 
12 | B3 | 331 | 
13 | {Nic-Ida^NHPal}-[Aib]FLFRPRN-NH2 [NM4A-Nic] | 43.6 | 

Reference: patent publication US20170037103A1 (University of California, published 2017)
